Target: Fibrillar type I collagen (PureCol atelo-type I collagen, Advanced Biomatrix Cat# 5005) (UniProt P02453)
Experiment: ELISA

Chain of UniProt P02453 (P02453 162-1217, chain 1 of 2): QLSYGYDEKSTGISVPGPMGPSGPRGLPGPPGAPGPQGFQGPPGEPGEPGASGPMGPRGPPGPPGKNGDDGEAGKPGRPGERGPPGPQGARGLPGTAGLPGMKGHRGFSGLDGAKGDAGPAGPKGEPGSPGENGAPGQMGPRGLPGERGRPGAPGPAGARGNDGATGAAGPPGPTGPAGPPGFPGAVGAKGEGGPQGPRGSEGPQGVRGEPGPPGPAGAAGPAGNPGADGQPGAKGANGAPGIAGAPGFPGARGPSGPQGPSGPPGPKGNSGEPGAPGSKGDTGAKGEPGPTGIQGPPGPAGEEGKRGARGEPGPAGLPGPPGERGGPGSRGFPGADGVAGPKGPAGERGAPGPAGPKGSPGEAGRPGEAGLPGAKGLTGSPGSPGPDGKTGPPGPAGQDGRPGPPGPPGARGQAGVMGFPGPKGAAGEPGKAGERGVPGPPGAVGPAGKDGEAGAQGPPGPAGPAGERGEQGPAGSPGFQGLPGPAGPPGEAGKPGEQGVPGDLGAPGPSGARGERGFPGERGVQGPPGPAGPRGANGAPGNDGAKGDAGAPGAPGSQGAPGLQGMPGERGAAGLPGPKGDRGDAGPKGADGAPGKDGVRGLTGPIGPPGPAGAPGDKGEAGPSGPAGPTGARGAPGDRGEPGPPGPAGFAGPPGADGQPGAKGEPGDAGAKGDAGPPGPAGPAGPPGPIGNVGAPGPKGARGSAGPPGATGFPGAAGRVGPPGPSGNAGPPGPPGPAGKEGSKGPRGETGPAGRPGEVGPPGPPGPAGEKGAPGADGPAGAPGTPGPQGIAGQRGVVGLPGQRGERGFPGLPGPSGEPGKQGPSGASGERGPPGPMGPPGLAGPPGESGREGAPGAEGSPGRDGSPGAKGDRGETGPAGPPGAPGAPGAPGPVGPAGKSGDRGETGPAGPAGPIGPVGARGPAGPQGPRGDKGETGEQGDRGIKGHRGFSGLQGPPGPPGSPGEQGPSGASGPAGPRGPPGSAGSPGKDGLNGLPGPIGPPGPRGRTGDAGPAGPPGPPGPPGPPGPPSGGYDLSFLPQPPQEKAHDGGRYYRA
Chain of UniProt P02453 (P02465 80-1117, chain 2 of 2, further chain): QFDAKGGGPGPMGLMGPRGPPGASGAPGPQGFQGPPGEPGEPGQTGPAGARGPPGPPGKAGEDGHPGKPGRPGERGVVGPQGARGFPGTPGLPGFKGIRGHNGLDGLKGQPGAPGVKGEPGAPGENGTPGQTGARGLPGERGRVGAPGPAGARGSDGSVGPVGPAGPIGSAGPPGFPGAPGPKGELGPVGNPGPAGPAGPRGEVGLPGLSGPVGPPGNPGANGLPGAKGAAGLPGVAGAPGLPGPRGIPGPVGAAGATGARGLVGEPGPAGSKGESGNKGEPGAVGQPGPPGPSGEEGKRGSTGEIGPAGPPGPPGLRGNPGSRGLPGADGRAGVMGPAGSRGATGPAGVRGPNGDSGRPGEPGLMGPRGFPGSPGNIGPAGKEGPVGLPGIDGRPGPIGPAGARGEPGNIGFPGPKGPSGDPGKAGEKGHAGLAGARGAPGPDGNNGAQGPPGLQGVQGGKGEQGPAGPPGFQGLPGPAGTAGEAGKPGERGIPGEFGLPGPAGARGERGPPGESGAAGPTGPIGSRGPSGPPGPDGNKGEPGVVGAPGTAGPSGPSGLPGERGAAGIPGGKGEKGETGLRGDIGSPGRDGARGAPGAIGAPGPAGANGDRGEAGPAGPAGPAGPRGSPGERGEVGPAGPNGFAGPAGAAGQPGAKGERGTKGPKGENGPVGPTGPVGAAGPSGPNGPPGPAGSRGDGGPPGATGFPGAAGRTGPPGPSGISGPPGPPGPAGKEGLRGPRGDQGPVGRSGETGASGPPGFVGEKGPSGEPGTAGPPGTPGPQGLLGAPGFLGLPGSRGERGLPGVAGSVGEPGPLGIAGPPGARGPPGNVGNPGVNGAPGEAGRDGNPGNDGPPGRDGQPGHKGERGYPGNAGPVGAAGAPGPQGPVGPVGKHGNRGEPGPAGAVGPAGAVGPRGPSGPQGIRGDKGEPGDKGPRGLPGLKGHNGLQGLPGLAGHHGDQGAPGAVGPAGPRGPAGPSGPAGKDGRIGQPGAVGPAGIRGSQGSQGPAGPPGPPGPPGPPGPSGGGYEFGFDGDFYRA

binding relative to that of WISP1 at equal concentrations: 75%
Substance: WISP1ΔCT (form of WISP1 lacking a CT-domain), overexpressed in 4T1 cells (conditioned medium) (domain or fragment)

— PMC8595651
